# Details: Bacillus caldolyticus, pH 7, Thermal, Na cacodylate/HCl 0.1 M, reversible: Yes, whole UniProt chain shown
protein,measurement,setting,value
"Cold shock protein CspB wild type, P41016 (protein) MQRGKVKWFNNEKGYGFIEVEGGSDVFVHFTAIQGEGFKTLEEGQEVSFEIVQGNRGPQAANVVKL",Tm,CD,76.9 °C
same,unfolding enthalpy (van 't Hoff),CD,58.6 kcal/mol
same,Tm,DSC,76.9 °C
same,unfolding enthalpy (calorimetric),DSC,61.4 kcal/mol

# From FireProtDB (doi:10.1093/protein/gzl019)
